Patent US5852187A, “Molecular cloning of the ovine pituitary growth hormone releasing hormone receptor” (priority 1996, dated 1998)
Where “and” joins values, the source holds several entries; their conditions need not be identical. Identical values can stand only once. Entries after “also recorded” stand apart in the source; their conditions may differ. Like-named read-outs stand apart in the source and are kept apart here. Where no end group is shown, it is not given here. [ ]: non-standard residue; d: D form. The star is where a group is joined. Nle = CCCC[C@H](N)C(=O)O; 125I = [125I]*

Key:
[1] = system: GHRH receptor (GHRH-R); assay: 125I-GHRHa binding assay in crude anterior pituitary membrane pellets; design: species or system ovine; conditions: for competition for the 125I-GHRHa binding site: 100 nM competing peptide; for displacement of GHRH in ovine pituitary: at 500 nM
Description: Specific binding is defined as the difference in the binding seen with 20 pM iodinated analog alone and binding of the analog in the presence of 10 nM non-iodinated GHRHa.
All steps were performed at 4° C. Frozen ovine or bovine anterior pituitaries (ovine: approximately 1 gm/pituitary obtained from Dr. Ian Clarke, Melbourne, Australia; bovine: approximately 2.5 gm/pituitary special handling from Pel-Freez, of Rogers, Ark.) were washed of blood, cleaned of connective tissue and homogenized (using a Dounce homogenizer) in 50 mM HEPES buffer, 100 mM NaCl, 10 mM EDTA, 0.1 μM EGTA, pH 7.4 with 0.5 mM PMSF (phenyl methyl sulfonyl fluoride), 10 μg/ml leupeptin, 10 μg/ml pepstatin A, and 200 U/ml (units/ml) aprotinin. This buffer is used to remove endogenous GTP which might be bound to G proteins and to restore high affinity binding. The homogenate was spun at top speed in a microfuge and the supernatant discarded. The upper (membrane) layer of the pellet was then gently resuspended in binding buffer containing 50 mM Tris buffer, 5 mM EGTA, 5 mM MgCl2, 50 μg/ml alamethicin, 30 μg/ml bacitracin and other protease inhibitors as above.
1/50 pituitary equivalent per tube was incubated in binding buffer with approximately 100,000 counts of iodinated probe in a volume of 500 μl at room temperature for 1 hour. The total counts delivered and the percent of counts bound for each tube was determined with 3 to 6 replicates per experimental condition. Saturation binding profiles were analyzed with the computer program Ligand which performs a statistically weighted least squares fit to the exact ligand binding equation in nontransformed coordinates.

[2] = target: dibiotinylated GHRHa (human) (UniProt P01286); assay: binding of iodinated biotinylated GHRHa forms to immobilized streptavidin, through the biotin group
[3] = target: monobiotinylated GHRHa (human) (UniProt P01286); assay: as above
[4] = target: T1, GHRH-R encoded by HAP 7 cDNA (Homo sapiens, UniProt Q02643); assay: Iodinated GHRH binding to COS cell membranes transfected with pCDM8 containing HAP 7 cDNA; conditions: for effect on binding of iodinated GHRH: 100 nM peptide, HAP transfected COS cells or membranes
T1 construct: expressed in transfected cells; host or cells: Cos-1 cells (membranes), pCDM8 vector
T1 sequence (Q02643 23-423): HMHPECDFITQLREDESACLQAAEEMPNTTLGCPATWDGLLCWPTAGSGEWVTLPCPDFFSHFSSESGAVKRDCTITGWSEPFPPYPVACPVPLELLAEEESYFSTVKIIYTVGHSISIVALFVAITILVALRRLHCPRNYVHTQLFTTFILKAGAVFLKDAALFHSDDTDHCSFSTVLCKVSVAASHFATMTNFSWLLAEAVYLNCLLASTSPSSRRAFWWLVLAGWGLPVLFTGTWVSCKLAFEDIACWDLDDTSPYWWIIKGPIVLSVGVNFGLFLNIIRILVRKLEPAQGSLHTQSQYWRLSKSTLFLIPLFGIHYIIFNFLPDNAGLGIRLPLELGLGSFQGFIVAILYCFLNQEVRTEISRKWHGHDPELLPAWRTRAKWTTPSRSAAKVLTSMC
Description: Cos-1 cells were transfected with the vector formed by splicing pCDM8 and HAP cDNA, and Cos-1 cell membranes were prepared 72 hours subsequently. Cos-1 cells were transfected using 10 μg of plasmid DNA per 6×10^5 cells in a 100-mm dish using the DEAE-dextran method described by Cullen. […] COS cell cultures were transfected in parallel with pCDM8 containing a cDNA encoding the rat AT1 angiotensin II receptor.

[5] = system: GHRH-R (55 kDa band); assay: Photoaffinity cross-linking / photoprobe binding in pituitary membrane pellets (gamma counting, SDS-PAGE autoradiography); design: species or system ovine
Description: Photoprobe binding in ovine pituitary membrane pellets was determined by γ-counting and UV induced cross-linking was examined by autoradiography of sodium dodecylsulfate polyacrylamide electrophoresis (SDS-PAGE) gels. ^125 I-GHRHa -ANB-NOS probe bound with an affinity of about one nanomole, nM (compared to about 160 picomole, pM, for GHRHa).
Photoprobe binding to membranes was evaluated with crude membrane binding assay and then analyzed further by SDS-PAGE electrophoresis to identify the binding sites. Photoprobes were incubated in the dark, photolysed for 10 minutes with a long wave (366 nm) UV lamp, and then the samples were pelleted. The pellets were counted and then extracted by boiling directly in SDS sample buffer (total SDS extracts). Alternatively, the labeled pellets were extracted in a mild detergent solution (5 mM CHAPS) centrifuged, and the chloroform/methanol concentrated supernatants denatured with SDS buffer (CHAPS extracts). These samples were then electrophoresed in SDS gels and autoradiographed.

[6] = target: T2, secretin and VIP receptors (Homo sapiens, UniProt P47872); conditions: at 10 μM; cited from earlier work
T2 construct: host or cells: human pancreas tissue

[7] = target: human GHRH receptor encoded by HAP 7.3 cDNA (human); assay: competition with iodinated GHRH analog, membranes of COS cells transfected with HAP 7 (FIG. 16)
[8] = target: ovine pituitary growth hormone releasing hormone receptor (ovine); assay: displacement of GHRH and its analogs, ovine anterior pituitary tissue
[9] = target: bovine pituitary GHRH receptor (bovine) (UniProt Q9TUJ0); assay: displacement of GHRH and its analogs, bovine anterior pituitary tissue
[10] = target: ovine pituitary growth hormone releasing hormone receptor (ovine); assay: saturation binding analysed with the program Ligand, crude pituitary membrane pellets
[11] = target: ovine pituitary growth hormone releasing hormone receptor (ovine); assay: binding and displacement of iodinated GHRH analog, ovine pituitary membranes (FIG. 17)
[12] = target: ovine pituitary growth hormone releasing hormone receptor (ovine); assay: saturation binding with increasing unlabeled GHRHa, crude pituitary membrane pellets (FIG. 2)
[13] = target: ovine pituitary growth hormone releasing hormone receptor (ovine); assay: saturation binding analysed with the program Ligand, crude pituitary membrane pellets (FIG. 2)
[14] = target: pituitary GHRH receptor (ovine or bovine, not said which at the place); assay: charcoal-dextran binding assay on pituitary membrane preparations solubilized in CHAPS without prebound ligand; the ligand is not named

T2 sequence (P47872 23-440): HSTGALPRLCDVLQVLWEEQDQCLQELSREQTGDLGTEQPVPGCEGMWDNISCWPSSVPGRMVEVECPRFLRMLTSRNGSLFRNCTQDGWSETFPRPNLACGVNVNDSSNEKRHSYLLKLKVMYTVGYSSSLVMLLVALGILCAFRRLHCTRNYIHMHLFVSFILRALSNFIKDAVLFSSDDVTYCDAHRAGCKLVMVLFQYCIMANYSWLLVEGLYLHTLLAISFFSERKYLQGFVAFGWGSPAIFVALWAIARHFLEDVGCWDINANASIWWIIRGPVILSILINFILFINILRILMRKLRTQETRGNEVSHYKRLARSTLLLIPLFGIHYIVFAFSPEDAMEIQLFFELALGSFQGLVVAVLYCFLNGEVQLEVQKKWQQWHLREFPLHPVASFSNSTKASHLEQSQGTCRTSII

For `CC[C@H](C)[C@H](NC(=O)CNC(=O)[C@H](CC(=O)O)NC(=O)[C@H](CO)NC(=O)[C@@H](N)Cc1c[nH]cn1)C(=O)N[C@@H](Cc1ccccc1)C(=O)N[C@H](C(=O)N[C@@H](CC(=O)O)C(=O)N[C@@H](CO)C(=O)N[C@@H](Cc1ccc(O)cc1)C(=O)N[C@@H](CO)C(=O)N[C@@H](CCCNC(=N)N)C(=O)N[C@@H](Cc1ccc(O)cc1)C(=O)N[C@@H](CCCNC(=N)N)C(=O)N[C@@H](CCCCN)C(=O)N[C@@H](CCC(N)=O)C(=O)N[C@@H](CCSC)C(=O)N[C@@H](C)C(=O)N[C@H](C(=O)N[C@@H](CCCCN)C(=O)N[C@@H](CCCCN)C(=O)N[C@@H](Cc1ccc(O)cc1)C(=O)N[C@@H](CC(C)C)C(=O)N[C@@H](C)C(=O)N[C@@H](C)C(=O)N[C@H](C(=O)N[C@@H](CC(C)C)C(=O)NCC(=O)N[C@@H](CCCCN)C(=O)N[C@@H](CCCNC(=N)N)C(=O)N[C@@H](Cc1ccc(O)cc1)C(=O)N[C@@H](CCCCN)C(=O)N[C@@H](CCC(N)=O)C(=O)N[C@@H](CCCNC(=N)N)C(=O)N[C@H](C(=O)N[C@@H](CCCCN)C(=O)N[C@@H](CC(N)=O)C(=O)N[C@@H](CCCCN)C(N)=O)C(C)C)C(C)C)C(C)C)[C@@H](C)O` [PACAP, pituitary adenylate cyclase activating peptide], the “competition for the 125I-GHRHa binding site” value [1] was “no competition; also recorded: did not compete” and the “displacement of GHRH in ovine pituitary” value [1] was “significant displacement”.

For “immobilized streptavidin (from UniProt P22629) (tool reagent)”, the percent of product bound [2] was > 90% and the percent of product bound [3] was > 90%.

For secretin, the “effect on binding of iodinated GHRH” value [4] was “unaffected”.

For “GHRH: growth hormone releasing hormone; the competitor in FIG. 17 is GHRHa”, the Kd ([1]; ovine pituitary membranes, displacement data of FIG. 17, read-out: KD for GHRH binding in pituitary) was 0.2 nM.

With vasoactive intestinal peptide [VIP] the “competition for the 125I-GHRHa binding site” value [1] was “no competition; also recorded: did not compete”, the “displacement of GHRH in ovine pituitary” value [1] was “not” and the “effect on photo-cross-linked 55 kDa band” value ([5]; 100 nM VIP) was “unaffected”. For the same compound, the “effect on binding of iodinated GHRH” value [4] was “unaffected; also recorded: no effect” and the “inhibition of 125I-secretin binding” value [6] was 20%.

For “PHM: competing peptide of the VIP family (HADGVFTSDFSKLLGQLSAKKYLESLM; ends and bridges not checked; UniProt P01282 81-107, looked up)”, the “effect on binding of iodinated GHRH” value [4] was “unaffected”.

In the case of `O[C@H](CS)[C@H](O)CS` (racemic) [dithiothreitol], the “effect on specific binding in the GHRH assay” value ([1]; preincubation with 1 mM) is reported as “completely eliminated”.

In the case of “[His^1, Nle^27 ]-GHRH-(1-32)-NH2 [GHRHa]”, the Kd ([1]; crude ovine pituitary membranes, program Ligand, read-out: Kd, saturation binding to a single high affinity site) is reported as 0.158 nM and ~0.16 nM, the “displacement of both photoprobes from membrane pellets” value ([5]; 10 nM GHRHa) is reported as “totally displaced” and the “effect on photo-cross-linked 55 kDa band” value ([5]; 10 nM GHRHa, 125I-GHRHa-ANB-NOS probe) is reported as “completely eliminated”.

In the case of GHRH(1-29)-NH2, the “inhibition of 125I-secretin binding” value [6] is given as 20%.

For parathyroid hormone, the “effect on binding of iodinated GHRH” value [4] was “unaffected”.

“PACAP (pituitary adenylate cyclase activating peptide)” gave a Ki [7] of 30 nM.

With “His^1, ^125 I-Tyr^10,Nle^27 human GHRH(1-29)NH2” the “binding of radioligand to HAP cDNA transfected COS cell membranes” value ([4]; not seen in angiotensin receptor cDNA transfected COS cells) was “specific, high-affinity binding”.

For “[His1, Nle27]-GHRH-(1-32)-NH2 (from UniProt P01286) (peptide)”, the fold lower displacing concentration than VIP or PACAP [8] was 500 fold and 1000 fold, the fold lower displacing concentration than VIP or PACAP [9] was 500 fold and 1000 fold and the Kd [10] was 0.158 nM. The Kd [11] was 0.2 nM, the Kd [12] was 0.16 nM and the Kd [13] was 0.15 nM. The Kd [14] was 500 nM.

In the case of “^125 I-GHRHa -ANB-NOS: GHRHa coupled to N-5-azido-2-nitrobenzoyloxysuccinimide at lysine 12 or 21, then iodinated; photoprobe (YADAIFTNSY(125I)RKVLGQLSARKLLQDI[Nle]SRQQG-NH2; also: N-5-azido-2-nitrobenzoyl (ANB-NOS) on lysine 12 or 21)”, the “affinity of photoprobe binding” value ([5]; ovine pituitary membrane pellets, gamma-counting) is reported as “about one”.

In the case of “monobiotinylated GHRHa: GHRHa biotinylated at lysine 12 or 21 with NHS-LC-Biotin, mono form resolved on HPLC (YADAIFTNSY(iodo)RKVLGQLSARKLLQDI[Nle]SRQQG-NH2; also: NHS-LC-Biotin on one of lysines 12 and 21)”, the “receptor binding affinity compared to GHRHa” value [1] is reported as “two-fold reduced”.

In the case of calcitonin, the “effect on binding of iodinated GHRH” value [4] is reported as “unaffected”.

With “[His 1, Nle27, Biotin-Lys4 1 ]-GHRH-(1-41)-NH2 [GHRHb]” the “receptor binding affinity compared to GHRHa” value [1] was “comparable to GHRHa”.

In the case of `Nc1nc2c(ncn2[C@@H]2O[C@H](COP(=O)(O)OP(=O)(O)OP(O)(O)=S)[C@@H](O)[C@H]2O)c(=O)[nH]1` [GTPγS], the “displacement of both photoprobes from membrane pellets” value ([5]; 50 μM GTPγS) is reported as “partially displaced”.

In the case of `C[C@H](N)C(=O)NCC(=O)N[C@H]1CSSC[C@@H](C(=O)O)NC(=O)[C@H](CO)NC(=O)[C@H]([C@@H](C)O)NC(=O)[C@H](Cc2ccccc2)NC(=O)[C@H]([C@@H](C)O)NC(=O)[C@H](CCCCN)NC(=O)[C@H](Cc2c[nH]c3ccccc23)NC(=O)[C@H](Cc2ccccc2)NC(=O)[C@H](Cc2ccccc2)NC(=O)[C@H](CC(N)=O)NC(=O)[C@H](CCCCN)NC1=O` [somatostatin], the “effect on binding of iodinated GHRH” value [4] is reported as “unaffected”.

With “^125 I-GHRHa: radioiodinated GHRHa probe, monoiodinated and HPLC purified (YADAIFTNSY(125I)RKVLGQLSARKLLQDI[Nle]SRQQG-NH2)” the “comparison with commercially available iodinated human GHRH” value [1] was “slightly better specific binding”.
